Measured values published in article PMC9652086.

Biological target: h4#147D, humanized IgG4-formatted anti-CD147 antibody (IgG4Pro, heavy chain S228P) (human)
Experiment: SPR; Biacore T200; purified h4#147D captured on the sensor chip with a human antibody capture kit, recombinant human or monkey CD147 injected; 1:1 fitting model

h4#147D, humanized IgG4-formatted anti-CD147 antibody (IgG4Pro, heavy chain S228P) (human), sequence (heavy, as listed by the source, chain 1 of 2): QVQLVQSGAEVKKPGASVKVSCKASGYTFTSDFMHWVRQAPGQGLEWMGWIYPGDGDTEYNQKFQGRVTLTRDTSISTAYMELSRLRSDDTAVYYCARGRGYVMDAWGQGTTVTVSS
h4#147D, humanized IgG4-formatted anti-CD147 antibody (IgG4Pro, heavy chain S228P) (human), sequence (light, as listed by the source, chain 2 of 2): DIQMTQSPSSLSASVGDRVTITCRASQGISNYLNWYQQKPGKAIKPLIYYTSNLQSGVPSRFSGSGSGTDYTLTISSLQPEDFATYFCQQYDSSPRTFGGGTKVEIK

Kd: 5.8 nM
Substance: recombinant monkey CD147 protein (natural protein)
